In a protein production outcome set (Wang et al. 2014):

Experiment: label from the status in PepcDB records
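Also: failed if final PepcDB status was selected cloned or expressed and not failed if soluble or beyond.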

| Sequence | protein production |
| --- | --- |
| MKRLFLPLLGFLSLVLMCCNDNKESGTDSYDPNKPVTIDYFTPDTGRVAEKVIIIGNNFGNDKSAVTVLFTDNMEKENKAAVVGVDNTTIYCMAPRQAEGFNKITVKVNDQTVVADETFKYSVSENVSTIAGDFVQADGAGKDGSLAEATFGQMFGVACIDEQSGIVGQAWNNNSVRYISIDEDAVITIQSGPVVGKVAVSNDKTLAYGATINGANTVYVYKKSQAWVPSRLSDISSGTDVWAVALNGDNQWLYYVTANGRLGRIEVDNPTHNEILFEHNDFSGGPFAYIAYSAFEDCFYVTTDKNKILKVWVKEDGTHAYEQINQNNTGTTDGFLADEAKFQYLRGLTIDEDGNIFVCQGDNSHVIRKIAYDENMEKRYVTTVLGTSTVHGTDDGSPDIALFNGPQDISYDGNGGYWIAMRYEPALRKYSIE | failed |
| HPMCKEHEDEKINIYCLTCEVPTCSMCKVFGIHKACEVAPLQSVFQGQKTE | not failed |
| MTVPEEAQTLIGKHYRAPDHFLVGREKIREFAVAVKDDHPTHYSEPDAAAAGYPALVAPLTFLAIAGRRVQLEIFTKFNIPINIARVFHRDQKFRFHRPILANDKLYFDTYLDSVIESHGTVLAEIRSEVTDAEGKPVVTSVVTMLGLEHHHHHH | failed |
| MSTLRATETHRASQSAWEVFLVFLRLGLTSFGGPVAHLGYFRDAFVTRRRWLTEHAYSDIVALCQFLPGPASSQVGMVVGLSRAGYPGALAAWVGFTLPSAIALILFALGLSHYGNLVPPSALHGLKVAAVAVVAQAVWGMARSLCPDAPRITLMILAAVAVTLIPSPWCQVGVMVVAGMVGAQRFRTAQVPPHEPLSIPVGHGAAIGFLLLFAGLLAGLPVVASLIPNHALALVDAFYRAGALVFGGGHVVLPLLQATVVPTGWVNNDTFLAGYGAAQAVPGPLFTFAAFLGAAGGPAPTGWIGGIVCLLAIFAPSFLLVFGALPFWERLRRHAGTRAALAGVNAAVVGLLLSALYQPVWTSAIHAPADFALALLALAALTVWRVPPWAVVTGCALAGWGMHVGGVA | failed |
| MAQRVQLTATVSENQLGQRLDQALAEMFPDYSRSRIKEWILDQRVLVNGKVCDKPKEKVLGGEQVAINAEIEEEARFEPQDIPLDIVYEDEDIIIINKPRDLVVHPGAGNPDGTVLNALLHYYPPIADVPRAGIVHRLDKDTTGLMVVAKTVPAQTRLVESLQRREITREYEAVAIGHMTAGGTVDEPISRHPTKRTHMAVHPMGKPAVTHYRIMEHFRVHTRLRLRLETGRTHQIRVHMAHITHPLVGDPVYGGRPRPPKGASEAFISTLRKFDRQALHATMLRLYHPISGIEMEWHAPIPQDMVELIEVMRADFEEHKDEVDWL | not failed |
| LGIAINEMIRMLRAARDEDDRRNWLKDGYGQVSAALTGDLTTEQLADAAIGLIGRYLDAGRGVFYLYRDAEQRLDLIGSYMYTERNNLGASFALGEGAVGQVARERKPIILEVSGDDAAPIVTGTMLALPRYTYTYPLLHEKELVGVIELSSFDHFDERKLEFLANVGGMLASFL | failed |
| MSKKGFFEYKLSKEIVRALTGLGYDHPTEVQGEVIPVALQKKDLVVKSQTGSGKTASFGIPLCEMVEWEENKPQALVLTPTRELAVQVKEDITNIGRFKRIKAAAIYGKSPFARQKLELKQKTHIVVGTPGRVLDHIEKGTLSLERLKYLVIDEADEMLNMGFIDQVEAIIDELPTNRMTMLFSATLPEDVERLSRTYMNAPTHIEIKAAGITTDKIEHTLFEAIEDEKFSLLKDVTTIENPDSCIIFCRTQENVDHVYRQLKRANYPCDKIHGGMVQEDRFEVMDDFRKGKFRYLVATDVAARGIDIDNITHVINYDIPLEKESYVHRTGRTGRAGNSGKAITFITPYENRFLEEIEEYIGFEIPKAIGPSKEEVMKGKAAFEEKIHAKPIIKKDKNADINKGIMKLYFNGGKKKKIRAVDFVGTIAKIKGVTAEDIGIITIQDNVSYVEILNGKGPLVLKVMKTTTIKGKQLKVHEAIK | failed |
| MNSFYSQEELKKIGFLSVGKNVLISKKASIYNPGVISVGNNVRIDDFCILSGKVTIGSYSHIAAYTALYGGEVGIEMYDFANISSRTIVYAAIDDFSGNALMGPTIPNQYKNVKTGKVILKKHVIIGAHSIIFPNVVIGEGVAVGAMSMVKESLDDWYIYVGVPVRKIKARKRKIVELENEFLKSMNSLEHHHHHH | failed |
| MIGLNTAAIYILQTLGSLYLLIVLLRFILQLVRADFYNPLSQFIVRATKPLLNPLRRIIPGFGGIDLASLVLAILIQLVLMILILMLMGYGVGGFIMQLLIWSIIAVTSLFLKVFFFALIISVILSWVAPGSYNPGAQLVNQICEPLLMPFRKLLPNLGGLDLSPIFAFLALKLIDMLVINNLAAMTGMPQQLSIFL | failed |
| MRAAFRTLGCKVNQVETEALLGFLKALEPEVVPLEAGGADLVVINSCAVTTTAEADTRKEVRRARRYNPHAFIVVTGCYAELAPEVLKELGADAVVPNARKAELPRVILERFGLPSDPITTPPNEFWGAGERGLLNSRVRAFLKVQDGCQAGCAYCIIPRLRGKERHRDHREALAEAEALLRMGIKEIVLTGVRLGSYKGHPRGLAGLVEDLYHLGAKVRLSSIEPEDTGEDLLKVIGRYAPEVRPHLHLSLQTGSDRLLKLMGRRYDKAYYRELVQRAYDLIPGFALTTDVIAGLPTETEEEHRETLAFLEELRPTRVHAFTYTPRPKTRAASMPQVPPEVRKRRTKELIALAQRLAEERIRPRLGERVEVLVERVQGGEALGHTPDYYEARLEGEARPGETVWARVHGVEGYVLLGRVEGVKEGARGPLELPVRLEHHHHHH | failed |
| MTAFYLLVPFLFIRFIFLSLLDRKATGRAAHFASMQGKEIIAYYLYQLSTLMLLIVPFFLKVSLHFSSFFYLGLGAYLLGSVLLFLVIKDFANPDEKGLNTKGLYALSRHPMYIAYFVLFLGVAMLTQSLTLLIFLAIFQLSAHFIILAEERECLIKFGAAYQEYQKRVRMYL | failed |
| METLRVSSKSRPNSVAGAIAALLRTKGEVEVQAIGPQAVNQAVKAIAIARGYIAPDNLDLVVKPAFVKLELENEERTALKFSIKAHPLET | not failed |
| MSNSKWWFLLVCFIPAITFASEGGEHSDPVTSVLLGVTTILFLAIIGRYLARLLNQPGVLGELLIGMIVGNLSYFFGSELVVILREGSAIYDVVKEMLAGISLNQAVTHVIHNSYYANQVIHALSGAEGTEYLKIAYVVDIFSRYGVIFLLFMVGLETSLSDLKKTGKESILVAVIGIVAPMILGFVVACFIIPNSNYKINLFIGATLSATSIGITASVLKEMNKLSTREARTILGAATLDDILGLIILAVVSSIVISGAVSIMVVMKIIILALLFFIGTLFMGPFVLRKAVDLFRFLEPWESKLFISFLFIMALAWLASFIQLAAIIGAFAAGVILHDDYFGEQKAHHKDHRSIHHLVSPLETILAPMFFTLIGIQVKLETFYDWNVIVLAGGLSVAAILGKLLSGLGANRRDDRLLIGIGMLPRGEVGLVFASIGRTIGVISDNLFTAIVLMIMITTFIAPPLLKMRYAKPKEDRNA | failed |
| MVAEITAPKSMGKVLGYNFSKVTAGNASVILTSSMSVDANGETNFERALTDMDMRIPSGIRTKKTVFHCSLNPHPDDRLTTEQLQDIAREYMEKMGYGKQPYIVFKHNDIAREHIHIVSLRVDSYGKKLPYKFEARRSKRITDELERKYGLIPSGNRRSRHETHAENVLKTADVKQGDVRRQIAAVVRAVLKRYAFRSLGEMNLLLARYHIVAEEVRKEYKGKRYDGLVYAITDDAGEKRMIPLHAGKIGRGTGYAAVVRHFEKSKALIKEKAPMLRNAIIEVMQSSPDKERFSEEMKKRGIDVHIRQNEQGRIYGITFISDEAGIAANGSRLGKGYSAHVFNDYFLGG | not failed |
| MRILAFPYTHTLSHLSRVLAVALELRRMGHEVVFAGESAKVSFVSQQGFDVVPIHEPDPEMLFGNIRSGKLRFVEDAELLQMLTADIEVIRSLKPDLVLSDGRFSAPLSTHLTNVRHAAIVNASSTEYRALPYVPFFDWMPPWLISRDAMIWKALVRLNLFLEMKLFDNVMKVFKRLSRELNTNRTVTATNCLTGKDITLLADIPEYFPSRNLPASYHYVGPLTWKSVLAPPAWWPLDIPSSPLVYVTMGTTGVSEFFSKLGPSLSTSFFSSIVTTGGQSSELKPMPGKVYVESYLDGDLVMERSDVVICHGGNGTIYQALSHGKPVIGIPTIPDQKFNMRRVEAMGFGKSLDLKQFLEKPSLLADTVKQVLSDHSFRNSAQKIQAVLKSYNAATTSAKILIDSILLEHHHHHH | failed |
| ERFQFAGSGGHQLAAALDLPDAQPLAYALFAHCFTCSKDNLAARRISAAMAARGIAVLRFDFTGLGASEGEFENATFSSNVADLVLAADHLRATHRAPTLLIGHSLGGAAVLAAAAQIPEAKAIATIAAPSDPSHVTGLFADDIETIRTEGRVNVSLAGRPFTIKREFLDDIAEHNLMAEIGKLHKALLILHAPTDDTVGIDNATKIFLAAKHPKSFVSLDHADHLLSDRRDANYAAGVIAAWAQRYIDAEPPAPTAGAPEVPR | failed |
| MEELTQILKNNRTDDLTWFCSLSESELDLLISLKKLAIQRAKISGHQELADKFDLKLLRSLGLVLMEHARKRVQNDTSLAPSVVHQLRLLDNCNLLKTHVDDAVDIEEILTQICDNKSKKKARKRRR | failed |
| MISSLSASSSLVSSFVAVKATPVTGPLIPRRDLLSIRIRASSNQNSSGYCFPEKFKSFAKSAILIGAAVSMTGKFSTLPVKAESPVTTIEKTYEEVKEEKLSEITPLSELLDSTPEAVETLRSLLQQKLEKGEDEEALKLLERLVAAQPEETEWKFLMARLLGEMGRPENARQMFEEILQRNPLSFEALFENALLMDRSGEGNAVLQRLEDALAVAEAEYLVKEARDVRLIIAQIHFLQKNVDEALKSYEQLTKEDPKDFRPYFCRGMIYSLLDKNVEAKEQFAKYRELSPKKFEVEGYLRTPLSKMKLFGGSEEN | failed |
| VWEFYMPTDVFFGEKILEKRGNIIDLLGKRALVVTGKSSSKKNGSLDDLKKLLDETEISYEIFDEVEENPSFDNVMKAVERYRNDSFDFVVGLGGGSPMDFAKAVAVLLKEKDLSVEDLYDREKVKHWLPVVEIPTTAGTGSEVTPYSILTDPEGNKRGCTLMFPVYAFLDPRYTYSMSDELTLSTGVDALSHAVEGYLSRKSTPPSDALAIEAMKIIHRNLPKAIEGNREARKKMFVASCLAGMVIAQTGTTLAHALGYPLTTEKGIKHGKATGMVLPFVMEVMKEEIPEKVDTVNHIFGGSLLKFLKELGLYEKVAVSSEELEKWVEKGSRAKHLKNTPGTFTPEKIRNIYREALGV | not failed |
| MEYSSIANGLFLISDINSDAAATISNVFDHTSMNTADLENMPTEKPVEYTKSPGHYYIVLPGQPNKYTAKIIINQLNASGETSDIATTTATSAYTTGLFTISAKYLVDDAFVINAGTGQEMTLTRIMDMDGSDYETFPVDVNQGPQTFTIVPQDQLLHATVNYKFADGTEAAPSAKLSGYAGLTTVSAKSPTISGYTPDQKEVAVAFAPTEKTYTVTYKANPTTPTATESSASSSTADEATTFTPFKIYGKRALYTYKNATFKKNQRVSHYAQKSKAYAPIFEVVGTAKSTSGHLRYKLADGTYVTANADYVGALYWQGMYQKLYVTNPKGTNAYDGTRFAQATKQKHYRQGTALTVVKQTQVGQTTRYELTNGTYVTGNKQWVSPTKPRLVKQVKVKRTIRLYRDVNGSTFIKRIKPGKTLTVTGWDYSHGRNPRLSGTLRYRVAGGYITANRQFVVAN | failed |
| MNVDARVGVAVDGAQSALNTATTVHSSVVMTQIKPQAKLGTFQNLLAGGIAGAISKTCTAPLARLTILFQLQGMQSEGAVLSRPNLRREASRIINEEGYRAFWKGNLVTVVHRIPYTAVNFYAYEKYNLFFNSNPVVQSFIGNTSGNPIVHFVSGGLAGITAATATYPLDLVRTRLAAQRNAIYYQGIEHTFRTICREEGILGLYKGLGATLLGVGPSLAINFAAYESMKLFWHSHRPNDSDLVVSLVSGGLAGAVSSTDDKLFDAHNYVATYPLDLVRRRMQVEGAGGRARVYNTGLFGTFKHIFKSEGFKGIYRGILPEYYKVVPGVGIVFMTYDALRRLLTSLPD | failed |
